{"source": "paper PMC8430805", "key": {"[1]": {"target": "LysB endolysin (putative N-acetylmuramoyl-L-alanine amidase) from the prophage of Clostridium botuli (Clostridium botulinum E3 strain Alaska E43 (prophage))", "test": "AUC"}, "[2]": {"target": "LysB endolysin (putative N-acetylmuramoyl-L-alanine amidase) from the prophage of Clostridium botuli (Clostridium botulinum E3 strain Alaska E43 (prophage))", "test": "SEC"}}, "data": [{"substance": "LysB endolysin (putative N-acetylmuramoyl-L-alanine amidase) from the prophage of Clostridium botuli (enzyme)", "values": [{"measurement": "stoichiometry N", "setting": "[1]", "value": 2}, {"measurement": "stoichiometry N", "setting": "[2]", "value": 2}]}]}
